In general, Kd refers to a measure of binding affinity in units of concentration. Read a low Kd as higher affinity.

For experiment [1], the target named is P1126 (Amblyomma cajennense). Nature of the experiment: BLI; OctetRed; evasin held on a nickel-coated biosensor by its C-terminal His tag; titration with chemokine from 600 to 0.4 nM; noninteracting reference protein; fit R2 ≥0.96, at least five data points. A general note: Biolayer interferometry detects binding as a change in optical thickness at a sensor tip.

In experiment [2] the target is P1142 (Amblyomma cajennense). The experiment is described as above.
In a further experiment the target is P675 (Ixodes ricinus). The description is as above.
The next experiment addresses P942 (Ixodes ricinus). The experiment is described as above.
Experiment [3] has as its target CXC-motif chemokine ligand 10 (CXCL10) (human) (UniProt P02778).

CXCL11, sequence (O14625 22-94): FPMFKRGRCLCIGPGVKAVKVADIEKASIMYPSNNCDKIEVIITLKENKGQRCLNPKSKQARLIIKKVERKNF

For “CXC-motif chemokine ligand 10 (CXCL10) (from UniProt P02778 22-98)”, the Kd is less than 10 nM in experiment [1], less than 10 nM in experiment [2], more than 100 nM with P675 (Ixodes ricinus) and more than 100 nM with P942 (Ixodes ricinus). Besides, in experiment [2], the target residence time is more than 10 min.

As to “CXCL11 (from UniProt O14625 22-94) (ligand)”, the Kd in experiment [1] is more than 300 nM; in experiment [2], more than 300 nM; in the experiment with P675 (Ixodes ricinus) it was less than 20 nM; with P942 (Ixodes ricinus), less than 20 nM.

In experiment [3], EVA3:S5 (from UniProt P0C8E8 70-86) registered a neutralization of human CXCL10-induced migration of activated human CD8+ T-cells (Transwell, EC80 dose of CXCL10, EVA3:S5 0.015–1000 nM); mean IC50 of five biological replicates of 3.11e-08 M. In the experiment with CXCL8 (human), this substance came in with a neutralization of human CXCL8-induced granulocyte migration (Transwell, EC80 dose of CXCL8, EVA3:S5 0.05–200 nM); mean IC50 of four biological replicates of 3.23e-08 M.

P1142 (natural protein) showed a neutralization of human CXCL10-induced migration of activated human CD8+ T-cells (Transwell, EC80 dose of CXCL10, P1142 0.015–150 nM); mean IC50 of five biological replicates in experiment [3] of 1.85e-09 M.

Source of the values: PMC6643034.
